The target in this experiment is hIL-12 receptor signaling complex (hIL-12Rβ1 and hIL-12Rβ2) (human) (UniProt P42701). Kind of experiment: cell-based or functional assay.
Sequence of hIL-12 receptor signaling complex (hIL-12Rβ1 and hIL-12Rβ2) (human) (Q99665 24-862, chain 2 of 2, other chains not shown): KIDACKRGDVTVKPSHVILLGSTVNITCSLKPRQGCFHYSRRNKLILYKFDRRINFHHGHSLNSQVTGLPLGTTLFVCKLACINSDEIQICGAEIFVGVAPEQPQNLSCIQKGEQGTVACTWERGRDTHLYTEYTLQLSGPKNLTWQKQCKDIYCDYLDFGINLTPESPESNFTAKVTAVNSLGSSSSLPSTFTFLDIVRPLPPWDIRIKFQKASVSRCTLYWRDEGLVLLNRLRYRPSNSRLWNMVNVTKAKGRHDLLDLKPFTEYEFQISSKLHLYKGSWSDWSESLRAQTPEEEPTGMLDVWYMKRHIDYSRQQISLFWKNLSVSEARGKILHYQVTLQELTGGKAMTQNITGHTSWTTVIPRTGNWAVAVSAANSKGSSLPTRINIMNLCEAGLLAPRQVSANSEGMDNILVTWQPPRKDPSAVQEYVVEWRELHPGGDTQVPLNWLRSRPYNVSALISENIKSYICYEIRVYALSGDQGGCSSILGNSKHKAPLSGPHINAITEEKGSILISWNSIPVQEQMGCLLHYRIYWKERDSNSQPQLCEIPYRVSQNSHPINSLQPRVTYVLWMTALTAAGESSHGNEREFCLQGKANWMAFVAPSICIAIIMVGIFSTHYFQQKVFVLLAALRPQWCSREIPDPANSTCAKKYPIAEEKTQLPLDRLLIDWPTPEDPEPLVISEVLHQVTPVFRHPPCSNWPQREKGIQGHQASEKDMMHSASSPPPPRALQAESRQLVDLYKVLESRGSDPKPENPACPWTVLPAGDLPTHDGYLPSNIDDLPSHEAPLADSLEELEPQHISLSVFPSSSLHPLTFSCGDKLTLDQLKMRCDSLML

Substance “human IL12 mutein of the F82X panel printed as E81A/F82F/K106K in row r9 of Tables 10 and 11 (label printed a second time in r19 with other values) (ligand)” showed a pSTAT4 [%+] EC50, CD8+ T Cells of 1.86 nM; a pSTAT4 [%+] EC50, CD56hi NK Cells of 2.27 nM; a pSTAT4 [%+] Emax, CD8+ T Cells of 75.9 %+; a pSTAT4 [%+] Emax, CD56hi NK Cells of 78.2 %+. In addition, the pSTAT4 [gMFI] EC50, CD8+ T Cells worked out at 6.65 nM; the pSTAT4 [gMFI] EC50, CD56hi NK Cells amounted to 9.12 nM; the pSTAT4 [gMFI] Emax, CD8+ T Cells is 80100 gMFI; the pSTAT4 [gMFI] Emax, CD56hi NK Cells was 21600 gMFI.
Turning to “human IL12 mutein, hIL-12p40 E81A, F82S with hIL-12p35-8X His (from UniProt P29460 23-328; P29459 23-219) (ligand)”, the pSTAT4 [%+] EC50, CD8+ T Cells is 0.86 nM; the pSTAT4 [%+] EC50, CD56hi NK Cells stood at 1.4 nM; the pSTAT4 [%+] Emax, CD8+ T Cells was determined as 80.5 %+; the pSTAT4 [%+] Emax, CD56hi NK Cells was 86.1 %+. The substance also registered a pSTAT4 [gMFI] EC50, CD8+ T Cells of 3.84 nM; a pSTAT4 [gMFI] EC50, CD56hi NK Cells of 6.29 nM; a pSTAT4 [gMFI] Emax, CD8+ T Cells of 95900 gMFI; a pSTAT4 [gMFI] Emax, CD56hi NK Cells of 26200 gMFI.

(Values after patent US20250388640A1.)
